Results as given in ChEMBL document CHEMBL1143427, “Interactions of ceftobiprole with beta-lactamases from molecular classes A to D” (Antimicrob Agents Chemother, 2007).

Tests used:
[1] = substrate: CC1(C)S[C@@H]2[C@H](NC(=O)Cc3ccccc3)C(=O)N2[C@H]1C(=O)O; assay: (§1) Activity of Pseudomonas aeruginosa AmpC assessed as drug hydrolysis by spectrophotometry
[2] = substrate: CO/N=C(\C(=O)N[C@@H]1C(=O)N2C(C(=O)[O-])=C(C[N+]3(C)CCCC3)CS[C@H]12)c1csc(N)n1; assay: as §1
[3] = substrate: CC(C)(O/N=C(\C(=O)N[C@@H]1C(=O)N2C(C(=O)[O-])=C(C[n+]3ccccc3)CS[C@H]12)c1csc(N)n1)C(=O)O; assay: as §1
[4] = substrate: O=C(Cc1cccs1)N[C@@H]1C(=O)N2C(C(=O)[O-])=C(C[n+]3ccccc3)CS[C@H]12; assay: as §1
[5] = substrate: Nc1nc(/C(=N/O)C(=O)N[C@@H]2C(=O)N3C(C(=O)O)=C(/C=C4\CCN([C@@H]5CCNC5)C4=O)CS[C@H]23)ns1; assay: as §1
[6] = substrate: CC1(C)S[C@@H]2[C@H](NC(=O)Cc3ccccc3)C(=O)N2[C@H]1C(=O)O; assay: (§2) Activity of Pseudomonas aeruginosa MK-1184 AmpC assessed as drug hydrolysis by spectrophotometry
[7] = substrate: CO/N=C(\C(=O)N[C@@H]1C(=O)N2C(C(=O)[O-])=C(C[N+]3(C)CCCC3)CS[C@H]12)c1csc(N)n1; assay: as §2
[8] = substrate: CC(C)(O/N=C(\C(=O)N[C@@H]1C(=O)N2C(C(=O)[O-])=C(C[n+]3ccccc3)CS[C@H]12)c1csc(N)n1)C(=O)O; assay: as §2
[9] = substrate: O=C(Cc1cccs1)N[C@@H]1C(=O)N2C(C(=O)[O-])=C(C[n+]3ccccc3)CS[C@H]12; assay: as §2
[10] = substrate: Nc1nc(/C(=N/O)C(=O)N[C@@H]2C(=O)N3C(C(=O)O)=C(/C=C4\CCN([C@@H]5CCNC5)C4=O)CS[C@H]23)ns1; assay: as §2
[11] = substrate: CC1(C)S[C@@H]2[C@H](NC(=O)Cc3ccccc3)C(=O)N2[C@H]1C(=O)O; assay: (§3) Activity of Pseudomonas aeruginosa 18SH AmpC assessed as drug hydrolysis by spectrophotometry
[12] = substrate: CO/N=C(\C(=O)N[C@@H]1C(=O)N2C(C(=O)[O-])=C(C[N+]3(C)CCCC3)CS[C@H]12)c1csc(N)n1; assay: as §3
[13] = substrate: CC(C)(O/N=C(\C(=O)N[C@@H]1C(=O)N2C(C(=O)[O-])=C(C[n+]3ccccc3)CS[C@H]12)c1csc(N)n1)C(=O)O; assay: as §3
[14] = substrate: O=C(Cc1cccs1)N[C@@H]1C(=O)N2C(C(=O)[O-])=C(C[n+]3ccccc3)CS[C@H]12; assay: as §3
[15] = substrate: Nc1nc(/C(=N/O)C(=O)N[C@@H]2C(=O)N3C(C(=O)O)=C(/C=C4\CCN([C@@H]5CCNC5)C4=O)CS[C@H]23)ns1; assay: as §3
[16] = substrate: CC1(C)S[C@@H]2[C@H](NC(=O)Cc3ccccc3)C(=O)N2[C@H]1C(=O)O; assay: (§4) Ratio of Kcat to Km of Pseudomonas aeruginosa MK-1184 AmpC assessed as drug hydrolysis by spectrophotometry
[17] = substrate: CO/N=C(\C(=O)N[C@@H]1C(=O)N2C(C(=O)[O-])=C(C[N+]3(C)CCCC3)CS[C@H]12)c1csc(N)n1; assay: as §4
[18] = substrate: CC(C)(O/N=C(\C(=O)N[C@@H]1C(=O)N2C(C(=O)[O-])=C(C[n+]3ccccc3)CS[C@H]12)c1csc(N)n1)C(=O)O; assay: as §4
[19] = substrate: O=C(Cc1cccs1)N[C@@H]1C(=O)N2C(C(=O)[O-])=C(C[n+]3ccccc3)CS[C@H]12; assay: as §4
[20] = substrate: Nc1nc(/C(=N/O)C(=O)N[C@@H]2C(=O)N3C(C(=O)O)=C(/C=C4\CCN([C@@H]5CCNC5)C4=O)CS[C@H]23)ns1; assay: as §4
[21] = substrate: CC1(C)S[C@@H]2[C@H](NC(=O)Cc3ccccc3)C(=O)N2[C@H]1C(=O)O; assay: (§5) Activity of Pseudomonas aeruginosa 4352 AmpC assessed as drug hydrolysis by spectrophotometry
[22] = substrate: CO/N=C(\C(=O)N[C@@H]1C(=O)N2C(C(=O)[O-])=C(C[N+]3(C)CCCC3)CS[C@H]12)c1csc(N)n1; assay: as §5
[23] = substrate: O=C(Cc1cccs1)N[C@@H]1C(=O)N2C(C(=O)O)=C(/C=C/c3ccc([N+](=O)[O-])cc3[N+](=O)[O-])CS[C@H]12; assay: as §5
[24] = substrate: CC(C)(O/N=C(\C(=O)N[C@@H]1C(=O)N2C(C(=O)[O-])=C(C[n+]3ccccc3)CS[C@H]12)c1csc(N)n1)C(=O)O; assay: as §5
[25] = substrate: O=C(Cc1cccs1)N[C@@H]1C(=O)N2C(C(=O)[O-])=C(C[n+]3ccccc3)CS[C@H]12; assay: as §5
[26] = substrate: Nc1nc(/C(=N/O)C(=O)N[C@@H]2C(=O)N3C(C(=O)O)=C(/C=C4\CCN([C@@H]5CCNC5)C4=O)CS[C@H]23)ns1; assay: as §5
[27] = substrate: CC1(C)S[C@@H]2[C@H](NC(=O)Cc3ccccc3)C(=O)N2[C@H]1C(=O)O; assay: (§6) Ratio of Kcat to Km of Pseudomonas aeruginosa AmpC assessed as drug hydrolysis by spectrophotometry
[28] = substrate: CO/N=C(\C(=O)N[C@@H]1C(=O)N2C(C(=O)[O-])=C(C[N+]3(C)CCCC3)CS[C@H]12)c1csc(N)n1; assay: as §6
[29] = substrate: O=C(Cc1cccs1)N[C@@H]1C(=O)N2C(C(=O)[O-])=C(C[n+]3ccccc3)CS[C@H]12; assay: as §6
[30] = substrate: Nc1nc(/C(=N/O)C(=O)N[C@@H]2C(=O)N3C(C(=O)O)=C(/C=C4\CCN([C@@H]5CCNC5)C4=O)CS[C@H]23)ns1; assay: as §6
[31] = substrate: CC1(C)S[C@@H]2[C@H](NC(=O)Cc3ccccc3)C(=O)N2[C@H]1C(=O)O; assay: (§7) Ratio of Kcat to Km of Pseudomonas aeruginosa 4352 AmpC assessed as drug hydrolysis by spectrophotometry
[32] = substrate: CO/N=C(\C(=O)N[C@@H]1C(=O)N2C(C(=O)[O-])=C(C[N+]3(C)CCCC3)CS[C@H]12)c1csc(N)n1; assay: as §7
[33] = substrate: O=C(Cc1cccs1)N[C@@H]1C(=O)N2C(C(=O)O)=C(/C=C/c3ccc([N+](=O)[O-])cc3[N+](=O)[O-])CS[C@H]12; assay: as §7
[34] = substrate: CC(C)(O/N=C(\C(=O)N[C@@H]1C(=O)N2C(C(=O)[O-])=C(C[n+]3ccccc3)CS[C@H]12)c1csc(N)n1)C(=O)O; assay: as §7
[35] = substrate: O=C(Cc1cccs1)N[C@@H]1C(=O)N2C(C(=O)[O-])=C(C[n+]3ccccc3)CS[C@H]12; assay: as §7
[36] = substrate: Nc1nc(/C(=N/O)C(=O)N[C@@H]2C(=O)N3C(C(=O)O)=C(/C=C4\CCN([C@@H]5CCNC5)C4=O)CS[C@H]23)ns1; assay: as §7
[37] = substrate: CC1(C)S[C@@H]2[C@H](NC(=O)Cc3ccccc3)C(=O)N2[C@H]1C(=O)O; assay: (§8) Ratio of Kcat to Km of Pseudomonas aeruginosa 18SH AmpC assessed as drug hydrolysis by spectrophotometry
[38] = substrate: CO/N=C(\C(=O)N[C@@H]1C(=O)N2C(C(=O)[O-])=C(C[N+]3(C)CCCC3)CS[C@H]12)c1csc(N)n1; assay: as §8
[39] = substrate: O=C(Cc1cccs1)N[C@@H]1C(=O)N2C(C(=O)[O-])=C(C[n+]3ccccc3)CS[C@H]12; assay: as §8
[40] = substrate: Nc1nc(/C(=N/O)C(=O)N[C@@H]2C(=O)N3C(C(=O)O)=C(/C=C4\CCN([C@@H]5CCNC5)C4=O)CS[C@H]23)ns1; assay: as §8
[41] = substrate: CC1(C)S[C@@H]2[C@H](NC(=O)Cc3ccccc3)C(=O)N2[C@H]1C(=O)O; assay: (§9) Ratio of Kcat to Km of Staphylococcus aureus betalactamase PC1 assessed as drug hydrolysis by spectrophotometry
[42] = substrate: CO/N=C(\C(=O)N[C@@H]1C(=O)N2C(C(=O)[O-])=C(C[N+]3(C)CCCC3)CS[C@H]12)c1csc(N)n1; assay: as §9
[43] = substrate: CC(C)(O/N=C(\C(=O)N[C@@H]1C(=O)N2C(C(=O)[O-])=C(C[n+]3ccccc3)CS[C@H]12)c1csc(N)n1)C(=O)O; assay: as §9
[44] = substrate: O=C(Cc1cccs1)N[C@@H]1C(=O)N2C(C(=O)[O-])=C(C[n+]3ccccc3)CS[C@H]12; assay: as §9
[45] = substrate: Nc1nc(/C(=N/O)C(=O)N[C@@H]2C(=O)N3C(C(=O)O)=C(/C=C4\CCN([C@@H]5CCNC5)C4=O)CS[C@H]23)ns1; assay: as §9
[46] = substrate: CC1(C)S[C@@H]2[C@H](NC(=O)Cc3ccccc3)C(=O)N2[C@H]1C(=O)O; assay: (§10) Activity of Staphylococcus aureus betalactamase PC1 assessed as drug hydrolysis by spectrophotometry
[47] = substrate: CO/N=C(\C(=O)N[C@@H]1C(=O)N2C(C(=O)[O-])=C(C[N+]3(C)CCCC3)CS[C@H]12)c1csc(N)n1; assay: as §10
[48] = substrate: CC(C)(O/N=C(\C(=O)N[C@@H]1C(=O)N2C(C(=O)[O-])=C(C[n+]3ccccc3)CS[C@H]12)c1csc(N)n1)C(=O)O; assay: as §10
[49] = substrate: O=C(Cc1cccs1)N[C@@H]1C(=O)N2C(C(=O)[O-])=C(C[n+]3ccccc3)CS[C@H]12; assay: as §10
[50] = substrate: Nc1nc(/C(=N/O)C(=O)N[C@@H]2C(=O)N3C(C(=O)O)=C(/C=C4\CCN([C@@H]5CCNC5)C4=O)CS[C@H]23)ns1; assay: as §10

B1: Beta-lactamase (Pseudomonas aeruginosa (strain ATCC 15692 / PAO1 / 1C / PRS 101 / LMG12228)), P24735 (protein)
chain: MRDTRFPCLCGIAASTLLFATTPAIAGEAPADRLKALVDAAVQPVMKANDIPGLAVAISLKGEPHYFSYGLASKEDGRRVTPETLFEIGSVSKTFTATLAGYALTQDKMRLDDRASQHWPALQGSRFDGISLLDLATYTAGGLPLQFPDSVQKDQAQIRDYYRQWQPTYAPGSQRLYSNPSIGLFGYLAARSLGQPFERLMEQQVFPALGLEQTHLDVPEAALAQYAQGYGKDDRPLRVGPGPLDAEGYGVKTSAADLLRFVDANLHPERLDRPWAQALDATHRGYYKVGDMTQGLGWEAYDWPISLKRLQAGNSTPMALQPHRIARLPAPQALEGQRLLNKTGSTNGFGAYVAFVPGRDLGLVILANRNYPNAERVKIAYAILSGLEQQGKVPLKR
Km [1]: 7.9 µM | kcat [1]: 86 s⁻¹ | Km [2]: 230 µM | kcat [2]: 3.1 s⁻¹ | kcat [3]: < 0.0095 s⁻¹ | Km [4]: 200 µM | kcat [4]: 16 s⁻¹ | Km [5]: 29 µM | kcat [5]: 230 s⁻¹ | Km [6]: 3 µM | kcat [6]: 20 s⁻¹ | Km [7]: 38 µM | kcat [7]: 0.33 s⁻¹ | Km [8]: 12 µM | kcat [8]: 0.69 s⁻¹ | Km [9]: 21 µM | kcat [9]: 22 s⁻¹ | Km [10]: 42 µM | kcat [10]: 0.45 s⁻¹ | Km [11]: 40 µM | kcat [11]: 45 s⁻¹ | Km [12]: 210 µM | kcat [12]: < 0.1 s⁻¹ | Km [13]: 20 µM | kcat [13]: < 0.1 s⁻¹ | Km [14]: 71 µM | kcat [14]: 130 s⁻¹ | Km [15]: 280 µM | kcat [15]: 3.6 s⁻¹ | kcat/Km [16]: 6.7e+06 M⁻¹ s⁻¹ | kcat/Km [17]: 8600 M⁻¹ s⁻¹ | kcat/Km [18]: 58000 M⁻¹ s⁻¹ | kcat/Km [19]: 1.1e+06 M⁻¹ s⁻¹ | kcat/Km [20]: 11000 M⁻¹ s⁻¹ | Km [21]: 11 µM | kcat [21]: 37 s⁻¹ | Km [22]: 370 µM | kcat [22]: < 0.012 s⁻¹ | Km [23]: 12 µM | kcat [23]: 68 s⁻¹ | Km [24]: 8 µM | kcat [24]: < 0.01 s⁻¹ | Km [25]: 320 µM | kcat [25]: 100 s⁻¹ | Km [26]: 55 µM | kcat [26]: < 0.024 s⁻¹ | kcat/Km [27]: 1.1e+07 M⁻¹ s⁻¹ | kcat/Km [28]: 1300 M⁻¹ s⁻¹ | kcat/Km [29]: 80000 M⁻¹ s⁻¹ | kcat/Km [30]: 7.9e+06 M⁻¹ s⁻¹ | kcat/Km [31]: 3.4e+06 M⁻¹ s⁻¹ | kcat/Km [32]: < 33 M⁻¹ s⁻¹ | kcat/Km [33]: 5.7e+06 M⁻¹ s⁻¹ | kcat/Km [34]: < 1300 M⁻¹ s⁻¹ | kcat/Km [35]: 310000 M⁻¹ s⁻¹ | kcat/Km [36]: < 440 M⁻¹ s⁻¹ | kcat/Km [37]: 1.1e+06 M⁻¹ s⁻¹ | kcat/Km [38]: 9000 M⁻¹ s⁻¹ | kcat/Km [39]: 1.8e+06 M⁻¹ s⁻¹ | kcat/Km [40]: 13000 M⁻¹ s⁻¹

B2: Beta-lactamase (Staphylococcus aureus), P00807 (protein)
chain: MKKLIFLIVIALVLSACNSNSSHAKELNDLEKKYNAHIGVYALDTKSGKEVKFNSDKRFAYASTSKAINSAILLEQVPYNKLNKKVHINKDDIVAYSPILEKYVGKDITLKALIEASMTYSDNTANNKIIKEIGGIKKVKQRLKELGDKVTNPVRYEIELNYYSPKSKKDTSTPAAFGKTLNKLIANGKLSKENKKFLLDLMLNNKSGDTLIKDGVPKDYKVADKSGQAITYASRNDVAFVYPKGQSEPIVLVIFTNKDNKSDKPNDKLISETAKSVMKEF
kcat/Km [41]: 1.9e+07 M⁻¹ s⁻¹ | kcat/Km [42]: 33 M⁻¹ s⁻¹ | kcat/Km [43]: 12 M⁻¹ s⁻¹ | kcat/Km [44]: 1300 M⁻¹ s⁻¹ | kcat/Km [45]: 310 M⁻¹ s⁻¹ | Km [46]: 3.4 µM | kcat [46]: 65 s⁻¹ | Km [47]: 61 µM | kcat [47]: 0.002 s⁻¹ | Km [48]: 29 µM | kcat [48]: 0.00035 s⁻¹ | Km [49]: 110 µM | kcat [49]: 0.14 s⁻¹ | Km [50]: 78 µM | kcat [50]: 0.024 s⁻¹
